Data on two molecules can be found in US20020019341A1 (Stanford University, published 2002).

The target of one experiment is human CCR4 (human) (UniProt P51679). The experiment can be described thus: cell-based or functional assay.
A further experiment addresses T1, integrin α4β7 (human, UniProt P13612 34-1032; P26010 20-798).
T1 construct: whole, on cells; also called a4p7
Nature of the experiment: cell adhesion to MAdCAM-1 transfectants, elution with 0.5mM EDTA.

T1 sequence (P13612 34-1032, chain 1 of 2): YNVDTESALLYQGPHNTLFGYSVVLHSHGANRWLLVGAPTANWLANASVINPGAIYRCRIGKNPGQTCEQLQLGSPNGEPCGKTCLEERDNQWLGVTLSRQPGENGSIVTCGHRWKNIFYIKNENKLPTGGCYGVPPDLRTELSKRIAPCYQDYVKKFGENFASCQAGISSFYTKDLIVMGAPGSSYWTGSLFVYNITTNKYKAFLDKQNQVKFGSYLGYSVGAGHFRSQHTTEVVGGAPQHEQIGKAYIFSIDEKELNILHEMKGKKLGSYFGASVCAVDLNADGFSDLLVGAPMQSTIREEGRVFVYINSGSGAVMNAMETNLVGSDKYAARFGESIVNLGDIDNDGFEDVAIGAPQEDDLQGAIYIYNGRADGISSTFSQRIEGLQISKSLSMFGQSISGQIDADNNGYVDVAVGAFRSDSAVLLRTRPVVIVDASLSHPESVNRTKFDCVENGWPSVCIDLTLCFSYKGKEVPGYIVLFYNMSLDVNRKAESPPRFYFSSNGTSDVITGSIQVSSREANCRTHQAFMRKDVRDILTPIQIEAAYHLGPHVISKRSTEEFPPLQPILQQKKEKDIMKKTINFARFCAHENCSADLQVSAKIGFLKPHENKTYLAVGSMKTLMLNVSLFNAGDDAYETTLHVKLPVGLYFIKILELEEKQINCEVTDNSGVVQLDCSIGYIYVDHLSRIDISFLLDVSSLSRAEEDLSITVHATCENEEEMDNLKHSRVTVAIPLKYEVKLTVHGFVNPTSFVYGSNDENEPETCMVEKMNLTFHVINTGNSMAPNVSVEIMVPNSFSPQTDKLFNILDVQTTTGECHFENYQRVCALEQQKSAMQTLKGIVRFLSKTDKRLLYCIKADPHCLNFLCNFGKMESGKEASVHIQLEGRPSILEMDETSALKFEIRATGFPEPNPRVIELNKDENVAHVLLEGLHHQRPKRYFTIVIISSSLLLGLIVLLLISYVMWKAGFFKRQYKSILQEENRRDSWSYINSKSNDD
T1 sequence (P26010 20-798, chain 2 of 2): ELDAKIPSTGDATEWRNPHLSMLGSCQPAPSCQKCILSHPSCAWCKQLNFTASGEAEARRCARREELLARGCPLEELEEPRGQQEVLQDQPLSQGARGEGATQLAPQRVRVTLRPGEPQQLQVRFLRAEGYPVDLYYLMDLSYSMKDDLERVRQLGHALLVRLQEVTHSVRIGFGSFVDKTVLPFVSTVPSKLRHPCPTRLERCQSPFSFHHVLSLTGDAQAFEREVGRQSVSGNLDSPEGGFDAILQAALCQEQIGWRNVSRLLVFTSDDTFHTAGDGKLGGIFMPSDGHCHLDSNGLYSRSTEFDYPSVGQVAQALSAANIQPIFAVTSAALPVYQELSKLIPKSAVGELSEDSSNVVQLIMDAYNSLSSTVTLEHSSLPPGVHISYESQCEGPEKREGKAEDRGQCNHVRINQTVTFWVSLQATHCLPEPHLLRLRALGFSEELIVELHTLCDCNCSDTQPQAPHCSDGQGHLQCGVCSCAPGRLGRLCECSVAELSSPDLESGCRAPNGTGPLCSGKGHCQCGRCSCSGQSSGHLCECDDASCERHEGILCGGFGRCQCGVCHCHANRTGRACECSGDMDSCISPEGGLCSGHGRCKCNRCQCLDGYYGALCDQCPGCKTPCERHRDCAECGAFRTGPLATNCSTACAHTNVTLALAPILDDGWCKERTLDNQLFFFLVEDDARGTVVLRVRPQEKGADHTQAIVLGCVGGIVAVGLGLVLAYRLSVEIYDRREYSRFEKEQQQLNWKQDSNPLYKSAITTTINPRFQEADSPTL
Chain of human CCR4 (human) (P51679 whole entry): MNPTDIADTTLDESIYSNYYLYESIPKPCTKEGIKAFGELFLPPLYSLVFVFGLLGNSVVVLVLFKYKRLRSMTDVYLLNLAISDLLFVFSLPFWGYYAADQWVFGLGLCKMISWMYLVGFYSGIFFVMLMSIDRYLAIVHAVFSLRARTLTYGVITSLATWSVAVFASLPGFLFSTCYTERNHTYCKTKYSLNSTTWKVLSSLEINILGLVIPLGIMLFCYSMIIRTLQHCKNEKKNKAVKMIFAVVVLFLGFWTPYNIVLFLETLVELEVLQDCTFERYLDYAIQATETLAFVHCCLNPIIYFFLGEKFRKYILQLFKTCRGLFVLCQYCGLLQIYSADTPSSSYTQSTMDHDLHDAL

Take “human TARC (thymus and activation-regulated chemokine) (from UniProt Q92583 24-94) (ligand)”: in the experiment with human CCR4 (human), the rapid adhesion of α4β7(-) memory CD4+ lymphocytes to immobilized ICAM-1 (static assay, TARC at 1 µM) (% of input cells) was less than 50.

B1: murine MAdCAM-1 (receptor, UniProt Q61826 22-405, looked up)
chain: QSFQVNPPESEVAVAMGTSLQITCSMSCDEGVARVHWRGLDTSLGSVQTLPGSSILSVRGMLSDTGTPVCVGSCGSRSFQHSVKILVYAFPDQLVVSPEFLVPGQDQVVSCTAHNIWPADPNSLSFALLLGEQRLEGAQALEPEQEEEIQEAEGTPLFRMTQRWRLPSLGTPAPPALHCQVTMQLPKLVLTHRKEIPVLQSQTSPKPPNTTSAEPYILTSSSTAEAVSTGLNITTLPSAPPYPKLSPRTLSSEGPCRPKIHQDLEAGWELLCEASCGPGVTVRWTLAPGDLATYHKREAGAQAWLSVLPPGPMVEGWFQCRQDPGGEVTNLYVPGQVTPNSSSTVVLWIGSLVLGLLALVFLAYRLWKCYRPGPRPDTSSCTHL
notes: whole, on cells; CHO cells transfected with murine MAdCAM-1; also called mucosal addressin cell adhesion molecule
Turning to B1, in the experiment with integrin α4β7, the binding result is on record as “binds”.
